Data reported in US20240026343A1, “METHOD FOR SCREENING DIMERIZED CYCLIC PEPTIDE” (AJINOMOTO CO., INC., priority 2021, published 2024).

B1: EMP-Jun-cys-N11-SecM-GS3: EMP-leucine zipper fusion for ribosome display, SEQ ID NO: 87 (protein)
chain: MAETGGLYACHMGPMTWVCQPLRGAAPAAPAPAAGGRIARLEEKVKTLKAQNSELASTANMLREQVAQLKQKVMNGCGGKDHLIHNHHKHEHAHAEHLFSTPVWISQAQGIRAGGSGSGS
modifications: EMP-Jun-cys-N11-SecM-GS3; DISULFID 10..19 Disulfide bridge between Cys-10 and Cys-19
B2: aMD4dY-Jun-cys-N11-SecM-GS3: c-Met binding cyclic peptide-leucine zipper fusion for ribosome display, SEQ ID NO: 71 (protein)
chain: MAETCRQFNRRTHEVWNLDCGAAPAAPAPAAGGRIARLEEKVKTLKAQNSELASTANMLREQVAQLKQKVMNGCGGKDHLIHNHHKHEHAHAEHLFSTPVWISQAQGIRAGGSGSGS
modifications: aMD4dY-Jun-cys-N11-SecM-GS3; DISULFID 5..20 Disulfide bridge between Cys-5 and Cys-20

Key:
[1] = biological target: T1, Recombinant Human Erythropoietin R Fc Chimera Protein (Homo sapiens, UniProt P19235); assay: Ribosome display enrichment on immobilized EPO receptor (Example 5); format: binding; settings: starting DNA mix 1:50:50 (EMP:aMD4dY:TPO fusions); one round; FIGS. 17, 18
T1 construct: purchased R&D systems 963-ER-50
T1 sequence (P19235 with tags, fused parts or gaps limits assumed): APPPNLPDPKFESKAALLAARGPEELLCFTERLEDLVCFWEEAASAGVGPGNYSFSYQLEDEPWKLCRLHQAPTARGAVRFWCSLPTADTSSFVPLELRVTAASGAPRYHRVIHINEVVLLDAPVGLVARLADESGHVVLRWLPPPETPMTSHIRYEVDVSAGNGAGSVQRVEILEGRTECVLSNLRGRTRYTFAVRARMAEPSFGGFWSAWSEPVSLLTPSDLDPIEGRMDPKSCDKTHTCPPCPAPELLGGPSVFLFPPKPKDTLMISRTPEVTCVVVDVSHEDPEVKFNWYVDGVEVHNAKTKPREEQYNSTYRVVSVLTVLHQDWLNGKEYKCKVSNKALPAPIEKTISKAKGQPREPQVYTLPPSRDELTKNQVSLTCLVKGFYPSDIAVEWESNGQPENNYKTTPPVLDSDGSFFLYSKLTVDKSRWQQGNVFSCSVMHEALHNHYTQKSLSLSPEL
Experimental: The DNA sequence of EMP-Jun-cys-N11-SecM-GS3 was prepared by PCR. Two types of DNA sequences, aMD4dY-Jun-cys-N11-SecM-GS3 and TPO-Jun-cys-N11-SecM-GS3, prepared in Example 4 were used. A DNA mix was prepared by mixing DNAs, EMP-Jun-cys-N11-SecM-GS3, aMD4dY-Jun-cys-N11-SecM-GS3, and TPO-Jun-cys-N11-SecM-GS3, at a ratio of 1:50:50.
(§1) DNA transcription was carried out using T7 RNA polymerase. T7 RNA polymerase (Takara Bio, 2540A) and rNTPs (Promega, E6000) as well were used for transcription. 11 μL of ultrapure water, 2 μL of 10×T7 RNA polymerase buffer, 2 μL of 50 mM DTT, 2 μL of 25 mM rNTPs, 1 μL of T7 RNA polymerase, and 1 μL of DNA mix were mixed and reacted in a constant temperature bath at 37° C. for 6 hours. A 50 mM EDTA solution was then added. It was purified with RNA Clean & Concentrator 5 (ZYMO […], R1015) and made into a 2 μM mRNA mix.
PURExpress ΔRF1,2,3 kit was used for translation expression of the prepared library. 2 μL of solution A, 1.5 μL of solution B, 1 μL of mRNA mix, and 0.5 μL of ultrapure water were mixed and cultured in a 37° C. constant temperature bath for 2 hours. […]
Three types of DNAs, EMP-Jun-cys-N11-SecM-GS3, aMD4dY-Jun-cys-N11-SecM-GS3, and TPO-Jun-cys-N11-SecM-GS3, along with DNA mix and DNA mix2 were evaluated with 2100 Bioanalyzer (Agilent technologies). […]

[2] = biological target: T2, Recombinant Human HGFR/c-MET Fc Chimera Protein (Homo sapiens, UniProt P08581); assay: Ribosome display enrichment on immobilized c-Met (Example 4); format: binding; settings: starting DNA mix 1:50:50 (aMD4dY:TPO:EMP′ fusions); one round; FIGS. 15, 16
T2 construct: purchased R&D systems 8614-MT-100
T2 sequence (P08581 with tags, fused parts or gaps limits assumed): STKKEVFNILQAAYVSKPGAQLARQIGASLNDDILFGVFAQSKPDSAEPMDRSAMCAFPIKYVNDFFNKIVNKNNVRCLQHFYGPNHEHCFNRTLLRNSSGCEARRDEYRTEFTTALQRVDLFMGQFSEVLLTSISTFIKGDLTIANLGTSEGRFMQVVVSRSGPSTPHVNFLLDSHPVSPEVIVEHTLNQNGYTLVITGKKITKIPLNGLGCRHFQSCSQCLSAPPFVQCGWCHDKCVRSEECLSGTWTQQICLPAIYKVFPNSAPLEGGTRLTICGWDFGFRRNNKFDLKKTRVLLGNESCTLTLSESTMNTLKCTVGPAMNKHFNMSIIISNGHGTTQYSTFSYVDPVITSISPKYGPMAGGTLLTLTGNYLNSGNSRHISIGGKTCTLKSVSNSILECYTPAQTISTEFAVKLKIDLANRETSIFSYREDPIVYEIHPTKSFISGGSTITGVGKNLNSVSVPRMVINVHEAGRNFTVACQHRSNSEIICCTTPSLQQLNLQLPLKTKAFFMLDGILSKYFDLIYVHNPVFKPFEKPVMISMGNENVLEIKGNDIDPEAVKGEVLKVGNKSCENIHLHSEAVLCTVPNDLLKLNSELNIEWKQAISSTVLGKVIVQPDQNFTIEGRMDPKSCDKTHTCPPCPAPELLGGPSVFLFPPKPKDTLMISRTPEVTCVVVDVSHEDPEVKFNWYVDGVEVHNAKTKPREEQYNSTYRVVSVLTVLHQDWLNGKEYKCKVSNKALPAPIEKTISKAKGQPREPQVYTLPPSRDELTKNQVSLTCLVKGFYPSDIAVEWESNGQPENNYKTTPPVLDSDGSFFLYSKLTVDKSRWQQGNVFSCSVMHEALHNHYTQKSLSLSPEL
T2 sequence (P08581 25-307 limits assumed, change not shown): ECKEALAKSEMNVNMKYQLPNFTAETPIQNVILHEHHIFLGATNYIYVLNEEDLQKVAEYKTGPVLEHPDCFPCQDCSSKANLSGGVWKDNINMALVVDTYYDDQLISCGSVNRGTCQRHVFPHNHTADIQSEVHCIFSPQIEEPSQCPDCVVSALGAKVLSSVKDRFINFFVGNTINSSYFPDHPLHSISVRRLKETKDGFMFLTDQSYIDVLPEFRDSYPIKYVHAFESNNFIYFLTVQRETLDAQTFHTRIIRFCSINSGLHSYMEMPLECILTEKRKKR
Experimental: as §1, with “E6000)” for “E6000) as well”
PURExpress ΔRF1,2,3 kit was used for translation expression of the prepared library. 2 μL of solution A, 1.5 μL of solution B, 1 μL of mRNA mix, and 0.5 μL of ultrapure water were mixed and cultured in a 37° C. constant temperature bath for 2 hours. After the reaction, the reaction vessel was placed on ice, and 20 μL of ice-cold 1×TBSM-T buffer (50 mM Tris-HCl, 150 mM NaCl, 50 mM MgCl2, 0.05% Tween 20) was added to the formed ribosome-cyclic peptide-leucine zipper fusion-mRNA complex. This complex reaction solution was used in (4-7) below.
Immobilization of target molecules to magnetic beads was carried out. […]

HGF-Erk-SRE pathway = assay: SRE luciferase reporter assay of cell-free translation products from ribosome display DNAs (Example 4); format: cell-based; settings: HEK293E cells with SRE reporter; cell-free translation product at 25- to 625-fold dilution; HGF comparator; FIG. 16
Experimental: For cell-free translation, to 20 ng of each DNA, 2.5 μL of Solution I, 0.25 μL of Solution II, 0.5 μL of Solution III, and 1.75 μL of water were added, and the mixture was incubated at 37° C. for 6 hours to carry out the translation reaction.
Reporter assays were carried out as follows. To 25 μL of Opti-MEM medium (Thermo Fisher Scientific), 0.6 μL of Attractene Transfection Reagent (QIAGEN) was added and incubated at room temperature for 5 minutes. To the above mixed solution, a mixed solution of 25 μL of Opti-MEM and 1 μL of SRE reporter vector (QIAGEN) was added and incubated at room temperature for 20 minutes. This mixed solution was added to a 96-well plate, HEK293E cells were seeded thereon at 40,000 cells/well, and incubated overnight at 37° C. in a 5% CO2 incubator. After transfection, all the culture supernatant was removed, and 100 μL of Opti-MEM medium (evaluation basal medium), containing 0.5% FBS (Thermo Fisher Scientific), 1% non-essential amino acid solution (Thermo Fisher Scientific), and penicillin-streptomycin (Nacalai Tesque), was added thereto, which was cultured at 37° C. for 4 hours to starve the cells.
To the evaluation basal medium, 0 to 100 ng/mL HGF was added, or the above cell-free expression reaction solution was added at a 25- to 625-fold dilution with respect to the medium, and 100 μL of the evaluation basal medium was added to the cells. The cells were stimulated by culturing overnight at 37° C. in a 5% CO2 incubator.
Dual-Luciferase Reporter Assay System (Promega) was used for signal intensity detection. […] Activation of the HGF-Erk-SRE pathway was quantified by detecting Firefly luciferase luminescence from cell lysates with a plate reader. Subsequently, 50 μL of Glo & Stop reagent solution was added, and after 10 minutes, luminescence of Renilla luciferase, an internal standard, was detected to quantify the cell count. The signal activity of each sample was quantified as SRE activity=(luminescence intensity of Firefly luciferase)/(luminescence intensity of Renilla luciferase). […]

| Molecule | enrichment in DNA mix2 after ribosome display against EPO receptor [1] | enrichment in DNA mix2 after ribosome display against c-Met [2] | relative SRE reporter activity (relative receptor activity) (HGF-Erk-SRE pathway) |
| --- | --- | --- | --- |
| B1 | enriched |  |  |
| B2 |  | enriched | showed activity |
